This note sets out measurements from patent US12065471B2, “B*44 restricted peptides for use in immunotherapy against cancers and related methods” (Immatics Biotechnologies GmbH, priority 2018, dated 2024).

In this experiment the target is HLA-B*44:05 (Homo sapiens, UniProt P01889, A223V/A65T/A93T/A95T/D201E/D98Y/E176V/E187L/E204Q/E69K/G107R/H137Y/K202T/L105A/L119I/N104T/N87E/Q56L/Q94N/R106L/R155S/R180D/S101N/S121R/S35A/S48T/T118I/V36M/W191S/Y91S). Nature of the experiment: MHC binding assay (UV-ligand exchange, β2m ELISA, peptide exchange yield). To be noted: binding to HLA-B*44:05. The source says:
Candidate peptides for T cell-based therapies according to the present invention were further tested for their MHC binding capacity (affinity). The individual peptide-MHC complexes were produced by UV-ligand exchange, where a UV-sensitive peptide is cleaved upon UV-irradiation and exchanged with the peptide of interest as analyzed. Only peptide candidates that can effectively bind and stabilize the peptide-receptive MHC molecules prevent dissociation of the MHC complexes. To determine the yield of the exchange reaction, an ELISA was performed based on the detection of the light chain (β2m) of stabilized MHC complexes. The assay was performed as generally described in Rodenko et al. (Rodenko et al., 2006)
96 well MAXISorp plates (NUNC) were coated over night with 2 μg/ml streptavidin in PBS at room temperature, washed 4× and blocked for 1 h at 37° C. in 2% BSA containing blocking buffer. Refolded HLA-A*02:01/MLA-001 monomers served as standards, covering the range of 15-500 ng/ml. Peptide-MHC monomers of the UV-exchange reaction were diluted 100-fold in blocking buffer. Samples were incubated for 1h at 37° C., washed four times, incubated with 2 μg/ml HRP conjugated anti-β2m for 1h at 37° C., washed again and detected with TMB solution that is stopped with […]. Absorption was measured at 450 nm.
(In general: In an ELISA, binding on a coated surface is turned into a signal by an enzyme label.)
As for “118 (SEVPVDSHYY; listed as Homo sapiens) [compound 118]”, the “Peptide exchange (MHC class I binding score, peptide exchange yield)” value (“Peptide exchange” below) is “+++ (>50 = +++)”.

Turning to “348 (SEVLLTSISTF; listed as Homo sapiens) [compound 348]”, the “Peptide exchange” value was “++++ (>75% = ++++)”.

“136 (EEMPEEIHL; listed as Homo sapiens) [compound 136]”: the “Peptide exchange” value was “+++ (>50 = +++)”.

For “238 (VEDDNYKLSL; listed as Homo sapiens) [compound 238]”, the “Peptide exchange” value is recorded as “+++ (>50 = +++)”.

“138 (KEAPNIVTL; listed as Homo sapiens) [compound 138]”: the “Peptide exchange” value is reported as “++++ (>75% = ++++)”.

Consider “285 (AEHPDFSPCSF; listed as Homo sapiens) [compound 285]”, for which the “Peptide exchange” value is “+++ (>50 = +++)”.

With “205 (MEIEGAGNFL; listed as Homo sapiens) [compound 205]”, the “Peptide exchange” value was “++++ (>75% = ++++)”.

Consider “261 (QEWDPQKTEKY; listed as Homo sapiens) [compound 261]”, for which the “Peptide exchange” value was “+++ (>50 = +++)”.

Regarding “129 (EEAMKRLSY; listed as Homo sapiens) [compound 129]”, the “Peptide exchange” value is listed as “++ (>20% = ++)”.

Regarding “157 (SQDVAGTTF; listed as Homo sapiens) [compound 157]”, the “Peptide exchange” value is “++ (>20% = ++)”.

For “224 (TETDIDREY; listed as Homo sapiens) [compound 224]”, the “Peptide exchange” value is recorded as “++ (>20% = ++)”.

On to “263 (AEQLRGFNA; listed as Homo sapiens) [compound 263]”, for which the “Peptide exchange” value is listed as “+++ (>50 = +++)”.

Turning to “152 (HENLIEDF; listed as Homo sapiens) [compound 152]”, the “Peptide exchange” value was “+++ (>50 = +++)”.

With “114 (VEVNGVPRW; listed as Homo sapiens) [compound 114]”, the “Peptide exchange” value is “++++ (>75% = ++++)”.

As to “269 (SEDLAVHL; listed as Homo sapiens) [compound 269]”, the “Peptide exchange” value was “++++ (>75% = ++++)”.

For the substance “256 (RLLPGKVVW; listed as Homo sapiens) [compound 256]”, the “Peptide exchange” value is “++ (>20% = ++)”.

Consider “330 (SEHLFGTSY; listed as Homo sapiens) [compound 330]”, for which the “Peptide exchange” value is given as “+++ (>50 = +++)”.

As for “284 (SQYPHTHTF; listed as Homo sapiens) [compound 284]”, the “Peptide exchange” value is recorded as “+++ (>50 = +++)”.

For “145 (EELRMLSF; listed as Homo sapiens) [compound 145]”, the “Peptide exchange” value is recorded as “++ (>20% = ++)”.

On to “246 (HEHGLFNLY; listed as Homo sapiens) [compound 246]”, for which the “Peptide exchange” value was “+++ (>50 = +++)”.

Take “332 (SEADWLRFW; listed as Homo sapiens) [compound 332]”: the “Peptide exchange” value is listed as “++++ (>75% = ++++)”.

With “247 (KESMLKTTL; listed as Homo sapiens) [compound 247]”, the “Peptide exchange” value is “+++ (>50 = +++)”.

Regarding “108 (QETNKVETY; listed as Homo sapiens) [compound 108]”, the “Peptide exchange” value is reported as “+++ (>50 = +++)”.

For the substance “220 (EEEVFSGMKL; listed as Homo sapiens) [compound 220]”, the “Peptide exchange” value is given as “++++ (>75% = ++++)”.

For “194 (TEGDVLNYIF; listed as Homo sapiens) [compound 194]”, the “Peptide exchange” value is “+++ (>50 = +++)”.

For the substance “245 (MEFQGPMPAGM; listed as Homo sapiens) [compound 245]”, the “Peptide exchange” value was “+++ (>50 = +++)”.

As to “375 (HEATFGEKRF; listed as Homo sapiens) [compound 375]”, the “Peptide exchange” value is on record as “+++ (>50 = +++)”.

For “374 (NEAEWQEIL; listed as Homo sapiens) [compound 374]”, the “Peptide exchange” value is “+++ (>50 = +++)”.

In the case of “280 (AAEPLVGQRW; listed as Homo sapiens) [compound 280]”, the “Peptide exchange” value is “++ (>20% = ++)”.

“105 (EEIFKTLNY; listed as Homo sapiens) [compound 105]”: the “Peptide exchange” value is reported as “+++ (>50 = +++)”.

In the case of “235 (SESLPRAPL; listed as Homo sapiens) [compound 235]”, the “Peptide exchange” value is “+++ (>50 = +++)”.

On to “21 (SEAKEIKSQL; listed as Homo sapiens) [compound 21]”, for which the “Peptide exchange” value is on record as “+++ (>50 = +++)”.

As to “135 (QEIDRGQYI; listed as Homo sapiens) [compound 135]”, the “Peptide exchange” value is listed as “++++ (>75% = ++++)”.

As for “74 (AELEGALQKA; listed as Homo sapiens) [compound 74]”, the “Peptide exchange” value is on record as “++ (>20% = ++)”.

Regarding “268 (EDLAVHLY; listed as Homo sapiens) [compound 268]”, the “Peptide exchange” value is “+ (>10% = +)”.

“85 (SEIDEKVTDL; listed as Homo sapiens) [compound 85]”: the “Peptide exchange” value is listed as “+++ (>50 = +++)”.

Consider “413 (TELEPGLTY; listed as Homo sapiens) [compound 413]”, for which the “Peptide exchange” value was “+++ (>50 = +++)”.

On to “184 (EEQLLQKVM; listed as Homo sapiens) [compound 184]”, for which the “Peptide exchange” value is reported as “++++ (>75% = ++++)”.

For “451 (REYEDGPLSL; listed as Homo sapiens) [compound 451]”, the “Peptide exchange” value is reported as “+++ (>50 = +++)”.

For “101 (SEENTGKTY; listed as Homo sapiens) [compound 101]”, the “Peptide exchange” value was “+++ (>50 = +++)”.

“357 (AELMDKPLTF; listed as Homo sapiens) [compound 357]”: the “Peptide exchange” value is “+++ (>50 = +++)”.

On to “203 (REILHAQTL; listed as Homo sapiens) [compound 203]”, for which the “Peptide exchange” value is given as “+++ (>50 = +++)”.

Regarding “376 (SESDGIEQL; listed as Homo sapiens) [compound 376]”, the “Peptide exchange” value is listed as “+++ (>50 = +++)”.

For “319 (YEWEPFAEV; listed as Homo sapiens) [compound 319]”, the “Peptide exchange” value is given as “+ (>10% = +)”.

On to “282 (KEFGIGDLVW; listed as Homo sapiens) [compound 282]”, for which the “Peptide exchange” value is listed as “++++ (>75% = ++++)”.

“449 (RENDFEPKF; listed as Homo sapiens) [compound 449]”: the “Peptide exchange” value was “+++ (>50 = +++)”.
